The values that follow come from US20200317768A1 (published 2020).

Test [1] concerns the target T1, cynomolgus monkey FcγRIIIaS extracellular domain, His-tagged (cynomolgus monkey, UniProt Q8SPW2 21-206 at identity 1.00)).
T1 construct: also called cyno FcγRIIIaS; cynoFcγRIIIaS
T1 chain: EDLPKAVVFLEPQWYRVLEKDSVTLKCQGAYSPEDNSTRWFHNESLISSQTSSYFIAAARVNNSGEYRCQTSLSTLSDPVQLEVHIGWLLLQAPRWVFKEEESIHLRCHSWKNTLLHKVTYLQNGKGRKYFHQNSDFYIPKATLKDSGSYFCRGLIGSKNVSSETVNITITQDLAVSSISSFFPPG
Description: SPR, antibody captured, FcgR analyte. In general terms: Surface plasmon resonance follows binding to a sensor surface in real time, without labels.

The target in test [2] is T2, cynomolgus monkey FcγRIIa2 extracellular domain, His-tagged (cynomolgus monkey).
T2 construct: also called cyno FcγRIIa2; cynoFcgRIIa2
T2 chain: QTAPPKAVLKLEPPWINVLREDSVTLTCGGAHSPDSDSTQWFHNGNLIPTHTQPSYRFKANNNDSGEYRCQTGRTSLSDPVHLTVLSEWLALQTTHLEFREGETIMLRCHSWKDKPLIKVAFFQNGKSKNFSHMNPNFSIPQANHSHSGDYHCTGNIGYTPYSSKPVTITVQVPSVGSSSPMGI
Description: SPR, antibody captured, FcgR analyte.

For test [3], the target named is T3, cynomolgus monkey FcγRIIb extracellular domain, His-tagged (cynomolgus monkey).
T3 construct: also called cyno FcγRIIb; cynoFcγRIIb
T3 chain: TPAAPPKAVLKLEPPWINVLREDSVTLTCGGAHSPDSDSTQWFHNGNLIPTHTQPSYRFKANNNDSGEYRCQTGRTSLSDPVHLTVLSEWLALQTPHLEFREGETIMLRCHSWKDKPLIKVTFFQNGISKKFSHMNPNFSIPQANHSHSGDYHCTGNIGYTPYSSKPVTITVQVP
In words: SPR, antibody captured, FcgR analyte.

Test [4] deals with T4, human FcγRIIaR extracellular domain, His-tagged (human, UniProt P12318 34-217).
T4 construct: also called human FcγRIIa (type R); FcgRIIaR
T4 chain: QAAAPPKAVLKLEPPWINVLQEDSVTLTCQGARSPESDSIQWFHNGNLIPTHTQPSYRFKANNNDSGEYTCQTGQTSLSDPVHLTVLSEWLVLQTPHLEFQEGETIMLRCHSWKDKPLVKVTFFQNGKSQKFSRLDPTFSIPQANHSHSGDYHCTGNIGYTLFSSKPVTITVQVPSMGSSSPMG
In words: SPR, antibody captured, FcgR analyte.

In test [5] the target is T5, human FcγRIIIaV extracellular domain, His-tagged (human, UniProt P08637 17-208).
T5 construct: also called FcgRIIIaV
T5 sequence (P08637 17-208 F176V): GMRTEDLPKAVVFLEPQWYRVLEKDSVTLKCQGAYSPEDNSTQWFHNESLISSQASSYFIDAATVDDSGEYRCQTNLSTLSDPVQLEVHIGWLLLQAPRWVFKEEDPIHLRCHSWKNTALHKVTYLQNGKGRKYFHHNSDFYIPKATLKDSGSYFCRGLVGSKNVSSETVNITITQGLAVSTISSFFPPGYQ
In words: SPR, antibody captured, FcgR analyte.

Test [6] addresses T6, cynomolgus monkey FcγRIIa1 extracellular domain, His-tagged (cynomolgus monkey).
T6 construct: also called cyno FcγRIIa1; cynoFcgRIIa1
T6 chain: T2 chain with T95P, A121T, K127I, S128A, N130K, N135D, Q142R
In words: SPR, antibody captured, FcgR analyte.

For test [7], the target named is T7, human FcγRIIaH extracellular domain, His-tagged (human, UniProt P12318 34-217).
T7 construct: also called human FcγRIIa (type H); FcgRIIaH
T7 sequence: T4 chain with R134H
In words: SPR, antibody captured, FcgR analyte.

In test [8] the target is T8, human FcγRIIb extracellular domain, His-tagged (human, UniProt P31994 43-217).
T8 construct: also called FcgRIIb (human)
T8 sequence: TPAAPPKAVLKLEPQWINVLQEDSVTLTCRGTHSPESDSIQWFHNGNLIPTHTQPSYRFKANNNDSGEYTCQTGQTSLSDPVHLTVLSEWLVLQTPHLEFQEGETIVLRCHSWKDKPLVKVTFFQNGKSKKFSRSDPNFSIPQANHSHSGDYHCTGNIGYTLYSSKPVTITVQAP
Description: SPR, antibody captured, FcgR analyte.

The target of test [9] is T8, human FcγRIIb extracellular domain, …. In words: SPR; KD of SG1 / KD of variant.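 Note: relative to parent M103205H795-SG1 carrying the SG1 human heavy chain constant region.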

Substitutions are numbered along the chain they refer to. Numbers in names are those of the source.

By Kd is commonly meant the equilibrium constant for the complex coming apart.

B1: MS_M103205H795-SG1/M103202L889-SK1 (antibody, human IgG1, kappa)
heavy: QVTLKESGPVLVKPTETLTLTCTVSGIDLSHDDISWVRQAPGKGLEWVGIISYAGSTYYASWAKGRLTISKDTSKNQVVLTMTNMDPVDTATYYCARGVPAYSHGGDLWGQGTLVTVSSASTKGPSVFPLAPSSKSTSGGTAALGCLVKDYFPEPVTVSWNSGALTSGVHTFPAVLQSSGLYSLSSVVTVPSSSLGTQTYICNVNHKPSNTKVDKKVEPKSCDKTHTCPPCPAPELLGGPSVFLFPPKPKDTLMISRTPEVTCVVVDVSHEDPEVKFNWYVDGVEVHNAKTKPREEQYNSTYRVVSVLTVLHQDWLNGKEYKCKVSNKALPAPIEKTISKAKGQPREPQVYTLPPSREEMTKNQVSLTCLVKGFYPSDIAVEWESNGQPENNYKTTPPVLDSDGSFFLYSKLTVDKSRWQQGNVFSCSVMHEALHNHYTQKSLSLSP
light: DIVMTQSPATLSLSPGERATLSCTSSQSVYHANWLSWFQQKPGQPPKLLIYWASTLAYGVPSRFSGSGSGTDFTLTISSLQPEDAATYYCAGGYGGGRYAFGQGTKVEIKRTVAAPSVFIFPPSDEQLKSGTASVVCLLNNFYPREAKVQWKVDNALQSGNSQESVTEQDSKDSTYSLSSTLTLSKADYEKHKVYACEVTHQGLSSPVTKSFNRGEC
notes: Parent antibody of the Fc variants; heavy chain constant region SG1, light chain M103202L889-SK1; also called MS1032LO06-SG1
As for B1, the Kd in [1] worked out at 360 nM; in test [2], 5100 nM; in [3] it was 1800 nM; in test [4], 1100 nM; in [5] it was 810 nM; in test [6] it was 3200 nM. Also, the Kd in test [7] worked out at 690 nM; in [8], 4600 nM. Also, the “KD fold (SG1 = 1)” value in test [9] is 1 fold.

B2: M103205H795-MY016/M103202L889-SK1 (antibody, human IgG1, kappa)
heavy: not shown
light: B1 light
notes: Substitution put into M103205H795-SG1
For the molecule B2, the Kd in [1] was 230 nM; in test [2] it was 3400 nM; in [3] it was 1700 nM; in test [4], 940 nM; in [5], 370 nM; in test [6], 2900 nM. For the same molecule, the Kd in test [7] was found to be 850 nM; in [8], 2900 nM. The “KD fold (SG1 = 1)” value in [9] came to 1.6 fold.

B3: M103205H795-MY037/M103202L889-SK1 (antibody, human IgG1, kappa)
heavy: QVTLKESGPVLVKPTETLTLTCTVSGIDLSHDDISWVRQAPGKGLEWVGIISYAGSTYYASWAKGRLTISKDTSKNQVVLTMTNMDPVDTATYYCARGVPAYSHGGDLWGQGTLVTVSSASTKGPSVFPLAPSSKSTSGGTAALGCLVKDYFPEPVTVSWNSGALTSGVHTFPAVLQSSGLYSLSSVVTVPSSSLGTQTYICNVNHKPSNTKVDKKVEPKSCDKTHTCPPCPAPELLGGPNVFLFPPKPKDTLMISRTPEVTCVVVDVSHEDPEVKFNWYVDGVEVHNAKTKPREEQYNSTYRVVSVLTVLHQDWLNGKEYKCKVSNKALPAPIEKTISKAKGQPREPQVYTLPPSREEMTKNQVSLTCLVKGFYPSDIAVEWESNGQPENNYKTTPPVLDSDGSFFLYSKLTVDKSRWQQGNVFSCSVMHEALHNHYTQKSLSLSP
light: B1 light
notes: as for B2
Turning to B3, the Kd is 200 nM in test [1]; 4500 nM in [2]; 2400 nM in test [3]; 910 nM in test [4]; 370 nM in test [5]; 3800 nM in test [6]. The equilibrium dissociation constant (Kd) in [7] worked out at 1100 nM; in test [8], 2600 nM. For the same molecule, the “KD fold (SG1 = 1)” value in test [9] stood at 1.8 fold.

B4: M103205H795-MY038/M103202L889-SK1 (antibody, human IgG1, kappa)
heavy: not shown
light: B1 light
notes: as for B2
B4: the Kd turned out to be 310 nM in [1]; 4500 nM in test [2]; 1900 nM in [3]; 1500 nM in [4]; 650 nM in test [5]; 3900 nM in [6]. Moreover, the Kd in test [7] came to 1200 nM; in [8], 2600 nM. The “KD fold (SG1 = 1)” value in [9] came out at 1.8 fold.

B5: M103205H795-MY041/M103202L889-SK1 (antibody, human IgG1, kappa)
heavy: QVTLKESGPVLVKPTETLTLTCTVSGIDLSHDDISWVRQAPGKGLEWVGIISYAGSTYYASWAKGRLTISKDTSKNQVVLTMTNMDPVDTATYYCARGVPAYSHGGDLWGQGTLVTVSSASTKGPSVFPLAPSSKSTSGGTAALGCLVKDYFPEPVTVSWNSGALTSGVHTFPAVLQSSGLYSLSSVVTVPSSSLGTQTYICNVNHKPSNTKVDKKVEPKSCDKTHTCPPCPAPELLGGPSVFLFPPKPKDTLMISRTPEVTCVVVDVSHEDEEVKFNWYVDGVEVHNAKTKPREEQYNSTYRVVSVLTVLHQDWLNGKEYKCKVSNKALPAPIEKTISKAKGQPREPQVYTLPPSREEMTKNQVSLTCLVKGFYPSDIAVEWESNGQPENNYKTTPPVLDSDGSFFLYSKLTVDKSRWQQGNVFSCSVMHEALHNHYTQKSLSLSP
light: B1 light
notes: as for B2
Regarding B5, the Kd in test [1] was 260 nM; in test [2], 4100 nM; in [3], 3500 nM; in [4] it was 1200 nM; in [5], 480 nM; in test [6], 4000 nM. In addition, the Kd in [7] is 1800 nM; in test [8], 3100 nM. Further, the “KD fold (SG1 = 1)” value in test [9] was found to be 1.6 fold.

B6: M103205H795-MY044/M103202L889-SK1 (antibody, human IgG1, kappa)
heavy: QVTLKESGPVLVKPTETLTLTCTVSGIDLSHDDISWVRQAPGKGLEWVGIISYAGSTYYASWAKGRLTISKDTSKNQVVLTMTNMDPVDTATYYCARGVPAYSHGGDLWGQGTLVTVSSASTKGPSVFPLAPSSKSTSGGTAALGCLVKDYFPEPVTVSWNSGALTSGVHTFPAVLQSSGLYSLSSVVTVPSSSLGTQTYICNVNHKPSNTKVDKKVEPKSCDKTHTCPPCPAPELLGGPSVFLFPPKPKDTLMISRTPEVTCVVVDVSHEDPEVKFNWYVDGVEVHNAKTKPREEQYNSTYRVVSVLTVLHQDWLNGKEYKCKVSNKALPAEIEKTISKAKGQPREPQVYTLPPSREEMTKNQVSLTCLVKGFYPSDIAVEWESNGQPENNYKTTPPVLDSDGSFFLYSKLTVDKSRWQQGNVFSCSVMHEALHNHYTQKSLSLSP
light: B1 light
notes: as for B2
Take B6: the Kd in test [1] turned out to be 470 nM; in test [2], 3500 nM; in [3] it was 1600 nM; in test [4], 920 nM; in [5], 900 nM; in [6], 3200 nM. Moreover, the dissociation constant Kd in test [7] was 1200 nM; in test [8], 3300 nM. In addition, the “KD fold (SG1 = 1)” value in [9] came to 1.4 fold.

B7: M103205H795-MY008/M103202L889-SK1 (antibody, human IgG1, kappa)
heavy: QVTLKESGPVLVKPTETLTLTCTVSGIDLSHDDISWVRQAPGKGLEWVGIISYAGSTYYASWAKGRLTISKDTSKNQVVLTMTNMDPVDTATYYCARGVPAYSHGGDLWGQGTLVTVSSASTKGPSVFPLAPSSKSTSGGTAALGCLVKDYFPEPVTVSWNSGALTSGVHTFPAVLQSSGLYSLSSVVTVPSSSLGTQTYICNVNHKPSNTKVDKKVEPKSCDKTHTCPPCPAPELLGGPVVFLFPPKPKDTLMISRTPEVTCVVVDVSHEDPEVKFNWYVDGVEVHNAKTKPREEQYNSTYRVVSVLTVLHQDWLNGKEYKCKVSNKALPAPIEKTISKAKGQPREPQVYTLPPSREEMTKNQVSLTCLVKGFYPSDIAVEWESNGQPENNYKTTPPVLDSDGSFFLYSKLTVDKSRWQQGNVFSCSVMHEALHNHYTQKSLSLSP
light: B1 light
notes: as for B2
B7: the Kd in test [1] is 370 nM; in [2] it was 3700 nM; in [3], 1700 nM; in test [4], 1800 nM; in test [5], 630 nM; in test [6] it was 4200 nM. Also, the Kd in [7] was found to be 1600 nM; in test [8] it was 2600 nM. In test [9], the “KD fold (SG1 = 1)” value came to 1.8 fold.

B8: M103205H795-MY013/M103202L889-SK1 (antibody, human IgG1, kappa)
heavy: not shown
light: B1 light
notes: as for B2
B8: the Kd is 330 nM in [1]; 4700 nM in test [2]; 2000 nM in test [3]; 5100 nM in test [4]; 410 nM in [5]; 4500 nM in test [6]. Besides, the Kd is 2600 nM in [7] and 3700 nM in [8]. For the same molecule, in test [9], the “KD fold (SG1 = 1)” value amounted to 1.2 fold.

B9: M103205H795-MY043/M103202L889-SK1 (antibody, human IgG1, kappa)
heavy: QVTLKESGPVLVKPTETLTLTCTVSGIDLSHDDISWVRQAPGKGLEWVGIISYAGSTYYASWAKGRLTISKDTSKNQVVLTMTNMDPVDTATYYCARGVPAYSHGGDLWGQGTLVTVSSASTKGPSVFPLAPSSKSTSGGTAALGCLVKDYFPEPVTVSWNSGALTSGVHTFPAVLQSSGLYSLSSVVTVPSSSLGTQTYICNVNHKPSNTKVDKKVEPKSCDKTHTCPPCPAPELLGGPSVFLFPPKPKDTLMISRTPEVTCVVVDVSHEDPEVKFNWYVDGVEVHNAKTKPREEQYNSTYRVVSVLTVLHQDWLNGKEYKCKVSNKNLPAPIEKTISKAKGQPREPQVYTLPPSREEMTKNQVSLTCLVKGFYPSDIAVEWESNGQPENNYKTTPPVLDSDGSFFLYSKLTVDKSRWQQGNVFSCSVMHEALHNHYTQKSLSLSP
light: B1 light
notes: as for B2
For the molecule B9, the Kd in test [1] is 840 nM; in [2], 61000 nM; in test [3], 4400 nM; in test [4] it was 1500 nM; in test [5], 120 nM; in test [6], 5800 nM. For the same molecule, the Kd in [7] is 2900 nM; in [8], 3000 nM. The “KD fold (SG1 = 1)” value in [9] amounted to 1.5 fold.

B10: M103205H795-MY045/M103202L889-SK1 (antibody, human IgG1, kappa)
heavy: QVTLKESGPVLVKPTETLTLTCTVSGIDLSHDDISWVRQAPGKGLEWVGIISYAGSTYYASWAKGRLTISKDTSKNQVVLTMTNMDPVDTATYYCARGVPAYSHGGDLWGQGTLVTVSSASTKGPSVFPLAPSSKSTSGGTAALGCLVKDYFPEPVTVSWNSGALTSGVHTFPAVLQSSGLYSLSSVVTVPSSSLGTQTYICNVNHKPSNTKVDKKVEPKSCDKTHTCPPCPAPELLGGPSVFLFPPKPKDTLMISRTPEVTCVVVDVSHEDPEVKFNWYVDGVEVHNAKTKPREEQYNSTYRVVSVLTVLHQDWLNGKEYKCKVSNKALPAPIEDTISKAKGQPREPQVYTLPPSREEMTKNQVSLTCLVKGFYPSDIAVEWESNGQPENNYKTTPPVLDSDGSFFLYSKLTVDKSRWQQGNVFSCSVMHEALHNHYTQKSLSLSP
light: B1 light
notes: as for B2
Turning to B10, the Kd worked out at 140 nM in [1]; 4000 nM in test [2]; 2200 nM in test [3]; 1600 nM in test [4]; 240 nM in [5]; 5700 nM in test [6]. Moreover, the Kd in [7] stood at 1600 nM; in test [8], 2900 nM. The “KD fold (SG1 = 1)” value in test [9] was found to be 1.6 fold.

B11: M103205H795-MY014/M103202L889-SK1 (antibody, human IgG1, kappa)
heavy: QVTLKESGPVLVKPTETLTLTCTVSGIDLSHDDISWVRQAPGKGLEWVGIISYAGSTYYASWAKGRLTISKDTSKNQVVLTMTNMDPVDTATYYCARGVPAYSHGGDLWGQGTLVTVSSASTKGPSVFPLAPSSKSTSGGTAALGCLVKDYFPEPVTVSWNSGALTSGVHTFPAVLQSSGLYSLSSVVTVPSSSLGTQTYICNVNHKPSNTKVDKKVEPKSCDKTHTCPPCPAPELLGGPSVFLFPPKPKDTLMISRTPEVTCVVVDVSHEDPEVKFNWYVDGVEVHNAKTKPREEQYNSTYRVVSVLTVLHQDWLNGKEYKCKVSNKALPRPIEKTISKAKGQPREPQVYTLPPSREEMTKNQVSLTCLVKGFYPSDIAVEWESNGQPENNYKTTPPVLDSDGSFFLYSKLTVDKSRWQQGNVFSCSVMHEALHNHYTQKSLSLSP
light: B1 light
notes: as for B2
On to B11, for which the Kd in test [1] was 400 nM; in test [2], 2500 nM; in test [3], 1500 nM; in test [4], 960 nM; in test [5] it was 690 nM; in [6], 2500 nM. The Kd amounted to 520 nM in test [7] and 4800 nM in test [8]. In addition, the “KD fold (SG1 = 1)” value in test [9] amounted to 1 fold.

B12: M103205H795-MY006/M103202L889-SK1 (antibody, human IgG1, kappa)
heavy: not shown
light: B1 light
notes: as for B2
As for B12, the Kd in test [1] amounted to 320 nM; in test [2], 1500 nM; in [3] it was 920 nM; in [4], 1800 nM; in [5], 730 nM; in test [6], 2000 nM. In addition, the Kd in test [7] is 1300 nM; in test [8] it was 2300 nM. The “KD fold (SG1 = 1)” value in test [9] came to 2 fold.

B13: M103205H795-MY010/M103202L889-SK1 (antibody, human IgG1, kappa)
heavy: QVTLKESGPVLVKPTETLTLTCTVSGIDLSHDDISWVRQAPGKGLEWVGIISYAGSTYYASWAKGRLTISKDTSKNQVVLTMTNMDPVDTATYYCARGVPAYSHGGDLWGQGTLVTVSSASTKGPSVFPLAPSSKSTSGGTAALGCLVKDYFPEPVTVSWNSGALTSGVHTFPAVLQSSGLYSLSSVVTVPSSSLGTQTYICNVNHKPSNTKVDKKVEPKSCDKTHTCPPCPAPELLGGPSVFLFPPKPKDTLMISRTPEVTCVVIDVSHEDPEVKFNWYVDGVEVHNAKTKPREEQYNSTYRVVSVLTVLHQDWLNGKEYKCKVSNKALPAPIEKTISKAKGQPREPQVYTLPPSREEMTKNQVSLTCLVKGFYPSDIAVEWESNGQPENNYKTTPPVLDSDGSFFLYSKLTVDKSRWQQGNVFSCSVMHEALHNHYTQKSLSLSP
light: B1 light
notes: as for B2
Consider B13, for which the Kd in test [1] came to 220 nM; in [2], 5000 nM; in [3], 2000 nM; in test [4], 1800 nM; in test [5], 220 nM; in [6], 3900 nM. Also, the Kd in [7] was determined as 1200 nM; in [8] it was 9100 nM. In addition, the “KD fold (SG1 = 1)” value in test [9] is 0.9 fold.

B14: M103205H795-MY048/M103202L889-SK1 (P271D) (antibody, human IgG1, kappa)
heavy: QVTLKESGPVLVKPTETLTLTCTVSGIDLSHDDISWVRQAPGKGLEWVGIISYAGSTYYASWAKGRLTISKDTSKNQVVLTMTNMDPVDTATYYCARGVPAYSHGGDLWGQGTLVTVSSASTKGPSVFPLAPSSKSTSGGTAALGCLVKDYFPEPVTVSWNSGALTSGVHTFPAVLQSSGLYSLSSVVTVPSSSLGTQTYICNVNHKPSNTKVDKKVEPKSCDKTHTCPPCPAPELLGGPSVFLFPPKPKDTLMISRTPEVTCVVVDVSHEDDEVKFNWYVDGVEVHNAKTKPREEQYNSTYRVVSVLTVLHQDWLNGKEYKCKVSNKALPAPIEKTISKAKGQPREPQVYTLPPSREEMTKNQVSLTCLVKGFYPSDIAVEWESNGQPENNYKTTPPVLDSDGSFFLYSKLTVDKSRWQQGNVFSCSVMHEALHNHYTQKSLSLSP
light: B1 light
notes: Here the P271D molecule is meant; Put into M103205H795-SG1
For B14, the Kd in [1] came to 370 nM; in test [2], 11000 nM; in test [3], 3500 nM; in [4] it was 1200 nM; in [5] it was 610 nM; in [6], 6600 nM. Besides, the results for the Kd in test [7] and in test [8] were 1800 nM and 3000 nM, respectively. Moreover, in test [9], the “KD fold (SG1 = 1)” value came to 1.5 fold.
